Assay: soluble on expression in E. coli; label from the status in PepcDB or PDB records

| Sequence | soluble on expression in E. coli |
| --- | --- |
| GCPRILIRCKQDSDCLAGCVCGPNGFCGSPA | soluble |
| GDSFYIRTHFEYEKESPYGLSFNKGEVFRVVDTLYNGKLGSWLAIRIGKNHKEVERGIIPNKNRAEQLASVQYVQTKFPAYERVVLREAGFLRPVTIFGPIADVAREKLAREEPDIYQIAKSEPRDAGTDQRSSGIIRLHTIKQIIDQDKHALLDVTPNAVDRLNYAQWYPIVVFLNPDSKQGVKTMRMRLCPESRKSARKLYERSHKLRKNNHHLFTTTINLNSMNDGWYGALKEAIQQQQNQLVWVSEG | soluble |
| GERLSMEDAVKLYESDEVEKMGAAANQIMLKWHPEPITTFVIGRNVNYTNFCDTYCRFCAFYRAPGHKEGYVLDDEVILKKIQETIDVGGTEILMQGGTNPDLTIDYYTDLLRNIKERFPNIWMHSFSPAEVWKIAEVSSMSVEEVLRELHEAGLDSMPGGGAEILTEETRLRVSRLKITWEQWINAMKATKKVGMHGTATMVIGFGESFEERALHLQRVRDAQDETECFTAFISWLFQPENTGMYKTKKLTPRDYLKNVAISRLFLDNIPNFQSSWVTMGPEVGKLSLQYGCNDFGSTMIEENVVSAAGTTHKVNTNKILQLIREAGKIPAQR | not soluble |
| GFIDTHLHVESSLVTPFEFDRCVTPRGITTAICDPHEIANVCGLEGIRYFLEASAHLVMDLRVQLSSCVPSTHMETAGAALEAKDLAPLMDHPRVIGLAEFMNFPGVLMKDPGCMAKLEAFRGRHIDGHAPLLRGKDLNGYIAAGIRTEHEATTAEEALEKLRKGMRVLIREGSVSKDLHALVSILTERHAPYLCLCTDDRNPLDIAEHGHIDHMIRTAIRLGAPPLAVYRAASLSAADAFGLKDRGLIAPGRRADIAVLD | not soluble |
| GFTPHDSAPYGALDMADFEFEQMFTDALGIDEYGG | soluble |
| GHGHMHGRLKVKTSEEQAEAKRLEREQKLKLYQSATQAVFQKRQAGELDESVLELTSQILGANPDFATLWNCRREVLQHLETEKSPEESAALVKAELGFLESCLRVNPKSYGTWHHRCWLLSRLPEPNWARELELCARFLEADERNFHCWDYRRFVAAQAAVAPAEELAFTDSLITRNFSNYSSWHYRSCLLPQLHPQPDSGPQGRLPENVLLKELELVQNAFFTDPNDQSAWFYHRWLLGAGSGRCELSVEKSTVLQSELESCKELQELEPENKWCLLTIILLMRALDPLLYEKETLQYFSTLKAVDPMRAAYLDDLRSKFLLENSVLKMEYA | soluble |
| GHHHHHHAIAENLYFQSKDVPGFLQQSQSSGPGQPAVWHRLEELYTKKLWHQLTLQVLDFVQDPCFAQGDGLIKLYENFISEFEHRVNPLSLVEIILHVVRQMTDPNVALTFLEKTREKVKSSDEAVILCKTAIGALKLNIGDLQVTKETIEDVEEMLNNLPGVTSVHSRFYDLSSKYYQTIGNHASYYKDALRFLGCVDIKDLPVSEQQERAFTLGLAGLLGEGVFNFGELLMHPVLESLRNTDRQWLIDTLYAFNSGNVERFQTLKTAWGQQPDLAANEAQLLRKIQLLCLMEMTFTRPANHRQLTFEEIAKSAKITVNEVELLVMKALSVGLVKGSIDEVDKRVHMTWVQPRVLDLQQIKGMKDRLEFWCTDVKSMEMLVEHQAHDILT | soluble |
| GHHHHHHAIAENLYFQSSRNPEVLWAQRSDKVYLTVALPDAKDISVKCEPQGLFSFSALGAQGERFEFSLELYGKIMTEYRKNVGLRNIIFSIQKEERSWWTRLLKSEEKPAPYIKVDWNKWCDEDEEVNSETASDDESAFVNQDSESSDDDGLLYLPDLEKARNK | soluble |
| GHMATIHPTAIVDEGARIGAHSRIWHWVHICGGAEIGEGCSLGQNVFVGNRVRIGNRVKIQNNVSVYDNVFLEDDVFCGPSMVFTNVYNPRAAIERKSEYRDTIVRQGATLGANCTVVCGATIGRYAFVGAGAVVNKDVPDFALVVGVPARQIGWMSRHGEQLDLPLRGNAEATCPHTGERYILTDGVCRLA | soluble |
| GHMENKVINFKKIIDSRGSLVAIEENKNIPFSIKRVYYIFDTKGEEPRGFHANKKLEQVLVCLNGSCRVILDDGNIIQEITLDSPAVGLYVGPAVWHEMHDFSSDCVMMVLASDYYDETDYIRQYDNFKKYIAKINLEKEG | soluble |
| GHMSTPLTLIATITAAPGHAEALERELRALVAPSRAEAGCLQYDLHQDRHDSHLFYMIEQWRDDAALERHQNTEHFLRFSRGNEALLQNVKIDQLYRLA | soluble |
| GIPRNSRVDSDDFLWFEGIAFPTMGFRSETLRKVRDEFVIRDEDVIILTYPKSGTNWLAEILCLMHSKGDAKWIQSVPIWERSPWVESEIGYTALSETESPRLFSSHLPIQLFPKSFFSSKAKVIYLMRNPRDVLVSGYFFWKNMKFLKKPKSWEEYFEWFCQGTVLYGSWFDHIHGWMPMREEKNFLLLSYEELKQDTGRTIEKICQFLGKTLEPEELNLILKNSSFQSMKENKMSNYSLLSVDYVVDKTQLLRKGVSGDWKNHFTVAQAEDFDKLFQEKMADLPRELFPWE | soluble |
| GKDWMISAKGTFTFARNILDEVFETEATFNNPNRRRTGRPDGTMFGYNALGYFTYDDFNPDGSLKAGIATQPWGQVYPGDLRYEDLSGPNGVPDGKIDEHDQTVIGFSNWAPEIIFGLAPTVQWKNFDLNALIQGATRTSISLGETLVMPFFDSGSATKLQFSDHWTPDNTNAPYPRLTSEVTVNNHRQPSSWWVRDATYIRLKSIEIGYTLPRSALNFIGISSARVYASGQNLWTWTPFMKELIDPEAKSANGKYYMQQAVYAFGLNITF | not soluble |
| GKGLGRRVLSINEIVGYDAVNQAFNFMDIFKWDPATDTFKFTGKNNSYLLEHKIAPRMGIPETQVRKIYSELDRRSKILRKIHQANITNFYDLFTTLIQLEEAGVIS | not soluble |
| GKKTRSVKSCVGKEFCRFGTQYTTRLGIRLEKTFEYIDTPHKFKMGVSGCPRSCVESGVKDFGVISVENGYQIFIGGNGGTDVTVGKLLTTVETEDEVIQLCGALMQYYRETGVYAERTAPWLERMGFENVKNVLLNQ | not soluble |
| GKNYVRSELKRLNHLCRDFRRDEVHAMDKLLFDQLCQIQLLLGTQAEVHIVSGYRSPATNKQLRSKSKGVAKKSYHMSGQAIDFRLDGVSLKKIREAAISLQAGGVGYYPKSQFIHIDTGPVRQWVGA | not soluble |
| GLGFETMRDGIKVAAKETLLTPRFYTTDFDEMEQLFSKEINPNLDMEELNACLNEFRNDYNKVHFVRNETFKAAADKVTGETRRIFIEFLERSCTAEFSGFLLYKELARRMKASSPEVAEMFLLMSRDEARHAGFLNKALSDFNLALDLGFLTKNRTYTYFKPKFIIYATFLSEKIGYWRYITIYRHLQRNPDNQFYPLFEYFENWCQDENRHGDFLAACLKAKPELLNTFEAKLWSKFFCLSVYITMYLNDHQRTKFYESLGLNTRQFNQHVIIETNRATERLFPVVPDVEDPRFFEILNKMVDVNAKLVELSASSSPLAGLQKLPLLERMASYCLQLLFFKEKDVGSVDIAGSGASRNLAY | not soluble |
| GMAKIEKNAPTMEKKPELFNIMEVDGVPTLILSKEWWEKVANFQAKPDDLILATYPKSGTTWMHEILDMILNDGDVEKCKRAQTLDRHAFLELKFPHKEKPDLEFVLEMSSPQLIKTHLPSHLIPPSIWKENCKIVYVARNPKDCLVSYYHFHRMASFMPDPQNLEEFYEKFMSGKVVGGSWFDHVKGWWAAKDMHRILYLFYEDIKKDPKREIEKILKFLEKDISEEILNKIIYHTSFDVMKQNPMTNYTTLPTSIMDHSISPFMRKGMPGDWKNYFTVAQNEEFDKDYQKKMAGSTLTFRTEI | soluble |
| GMAVECIKDKVTRYPERASYSDEDLVAMLDRNFTCTVSFIDGGIPYAIPMMLASEGKTIYLHGSMKSRIYGILKTGQLIAISLLEINGIVLAKEIKNNSINYVSALIFGRPYEIDDTEKKIEVFRLLTEKLVKGRWDNSIKPSYEDLNGVFVFAVKPETFSMKARTGPPHDTSTDDIWSGVLPIQHTISEAGENAPEYVKSLYGKRIFI | soluble |
| GMAYGSSNPEDLAKNFTKDLYSGDTKSVMSYIDLSEAKSDEEKTFVSDKITQVVAENAAKAKRMGGVKDIQIEEKTINKDSAKIRVLVLFNNDNNQSSNVFLAKKDRKWLVLLK | soluble |
| GMDDQSGDQMRPELTMPPAEAEALRMAYEEAEVILEYGSGGSTVVAAELPGKHVTSVESDRAWARMMKAWLAANPPAEGTEVNIVWTDIGPTGDWGHPVSDAKWRSYPDYPLAVWRTEGFRHPDVVLVDGRFRVGCALATAFSITRPVTLLFDDYSQRRWQHQVEEFLGAPLMIGRLAAFQVEPQPIPPGSLMQLIRTMTSP | soluble |
| GMEKLNFGIPEWAFEFHGHKCPYMPMGYRAGSYALKIAGLEKEKDHRTYLLSEMSPEDMNGCFNDGAQAATGCTYGKGLFSLLGYGKLALILYRPGRKAIRVHVRNSFMDELSTRASDFFRYRKQGYEPSEIPAGAIDPVLEWISSLEDEEIFEYREIDGFTFEPVKKNGAKVRCDVCGEYTYEADAKLLNGKPVCKPDYYGKK | soluble |
| GMEKLSAIKKPDINVADAWEQYWNKTLVNSTPVLWDANVERAVVVDLPRFELLFNPELPLIDFACGNGTQTKFLSQFFPRVIGLDVSKSALEIAAKENTAANISYRLLDGLVPEQAAQIHSEIGDANIYMRTGFHHIPVEKRELLGQSLRILLGKQGAMYLIELGTGCIDFFNSLLEKYGQLPYELLLVMEHGIRPGIFTAEDIELYFPDFEILSQGEGLFQSIHKLPDGNYATPPAFWAVIKHR | soluble |
| GMGLALCGAAAQAQEKPNFLIIQCDHLTQRVVGAYGQTQGCTLPIDEVASRGVIFSNAYVGCPLSQPSRAALWSGMMPHQTNVRSNSSEPVNTRLPENVPTLGSLFSESGYEAVHFGKTHDMGSLRGFKHKEPVAKPFTDPEFPVNNDSFLDVGTCEDAVAYLSNPPKEPFICIADFQNPHNICGFIGENAGVHTDRPISGPLPELPDNFDVEDWSNIPTPVQYICCSHRRMTQAAHWNEENYRHYIAAFQHYTKMVSKQVDSVLKALYSTPAGRNTIVVIMADHGDGMASHRMVTKHISFYDEMTNVPFIFAGPGIKQQKKPVDHLLTQPTLDLLPTLCDLAGIAVPAEKAGISLAPTLRGEKQKKSHPYVVSEWHSEYEYVTTPGRMVRGPRYKYTHYLEGNGEELYDMKKDPGERKNLAKDPKYSKILAEHRALLDDYITRSKDDYRSLKVDADPRCRNHTPGYPSHEGPGAREILKRK | soluble |
| GMLESVRKEWLEIMDRELLEKARSLINANYISTTLSTVDRNYEVNIAVISVLEMIGDDTIICARFGADKTYANLKETGKGVFMVLLTDNDKSKDGIRVYVELSADLQEGEYFDRIKKRLDNTTYKNFPLKNCLVFKIVKILPVSLLRK | soluble |
| GMNQAMDTKQIAPFTLALPEGEALPLVCDSPHSGTFYPADFGAVVAPERLRGGEDTHVDALWEAVPRVGGTLLAATFPRVYIDPNRMLDDIDPAQLEGPWPTPLAPGEKTRLGYGLIWSNVDAATPIYDRKLTVAEVQRRINRYYRPYHAALTEAVEGAYQRFGAVWHLNLHSMPNNAYERLKIQSPRPLADFVLGDRDGTTCEPGLVDLVERELREKGYTVARNDPYKGVQLIAQIGRPAERRNSLQIEIRRPLYMEEGTRERNEGFATLQRDLTLLTLRIAEYVRRGV | soluble |
| GMPDSPTLLDLFAEDIGHANQLLQLVDEEFQALERRELPVLQQLLGAKQPLMQQLERNGRARAEILREAGVSLDREGLARYARERADGAELLARGDELGELLERCQQANLRNGRIIRANQASTGSLLNILRGQDAPSLYDSRGGTASSSRQRPLSQA | soluble |
| GMPKLDLDSIERRIGSVYPGRLNAAMDGRSSLRLGDAGGLSQFGVNLVRLEPGAKSSLRHYHMEQDEFVMVTEGALVLVDDQGEHPMVPGDCAAFPAGDPNGHQFVNRTDAPATFLVVGTRTPTETAYYSDMDMMVKQDASGFAFTRKDGSPLTADQIGDDNE | soluble |

— the DeepSol protein solubility set
